The text below walks through data of patent US20230374116A1 (ROSALIND FRANKLIN INSTITUTE, published 2023).

What all share (assay): cell-based or functional assay
Test [1] addresses Spike protein on live SARS-CoV-2 Alpha strain (SARS-CoV-2 Alpha (B.1.1.7), UniProt P0DTC2 14-1273).
Test [2] deals with Spike protein on live SARS-CoV-2 Delta strain (SARS-CoV-2 Delta (B.1.617.2), UniProt P0DTC2 14-1273).
The target in test [3] is Spike protein on live SARS-CoV-2 Beta strain (SARS-CoV-2 Beta (B.1.351), UniProt P0DTC2 14-1273).

B1: H3 trimer (VHH)
chain: QVQLVESGGGLVKTGGSLRLSCAASGRTFSTYSMGWFRQAPGKEREFVAGMRWTGSSTFYSDSVKGRFTVSRNNAKDTVYLHMNSLKPEDTAVYYCAITTIVRAYYTEYTEADFGSWGQGTQVTVSSGAVLAPQVQLVESGGGLVKTGGSLRLSCAASGRTFSTYSMGWFRQAPGKEREFVAGMRWTGSSTFYSDSVKGRFTVSRNNAKDTVYLHMNSLKPEDTAVYYCAITTIVRAYYTEYTEADFGSWGQGTQVTVSSGSGSGSQVQLVESGGGLVKTGGSLRLSCAASGRTFSTYSMGWFRQAPGKEREFVAGMRWTGSSTFYSDSVKGRFTVSRNNAKDTVYLHMNSLKPEDTAVYYCAITTIVRAYYTEYTEADFGSWGQGTQVTVSS
On to B1, for which the results for the “ND 50 MN assay, live virus” value in test [1] and in test [2] were 0.6 nM and 0.3 nM, respectively.

B2: C1 trimer (VHH)
chain: QVQLVESGGGLVQPGGSLRLSCAASGFTNDFYSIAWFRQAPGKEREGVSWLSVSDNTPTYVDSVKDRFTISRHNANNTVYLQMNMLKPEDTAIYYCAAGRFAGRDTWPSSYDYWGQGTQVTVSSGSGSGSQVQLVESGGGLVQPGGSLRLSCAASGFTNDFYSIAWFRQAPGKEREGVSWLSVSDNTPTYVDSVKDRFTISRHNANNTVYLQMNMLKPEDTAIYYCAAGRFAGRDTWPSSYDYWGQGTQVTVSSGSGSGSQVQLVESGGGLVQPGGSLRLSCAASGFTNDFYSIAWFRQAPGKEREGVSWLSVSDNTPTYVDSVKDRFTISRHNANNTVYLQMNMLKPEDTAIYYCAAGRFAGRDTWPSSYDYWGQGTQVTVSS
Turning to B2, the results for the “ND 50 MN assay, live virus” value in test [1], in test [3] and in test [2] were 8.2 nM, 4.5 nM and 3.1 nM, respectively.

B3: A8 trimer (bispecific antibody)
chain: QVQLVESGGGLVQAGGSLRLSCAASGGTFSTAAMGWFRQAPGEERECVASIGWRGVRTWYADSVKGRFTISRDNPQNTVYLQMNNLKSGDTAVYYCAASVGNYGLPWAHFEYDFWGQGIQVTVSSGSGSGSQVQLVESGGGLVQAGGSLRLSCAASGGTFSTAAMGWFRQAPGEERECVASIGWRGVRTWYADSVKGRFTISRDNPQNTVYLQMNNLKSGDTAVYYCAASVGNYGLPWAHFEYDFWGQGIQVTVSSGSGSGSQVQLVESGGGLVQAGGSLRLSCAASGGTFSTAAMGWFRQAPGEERECVASIGWRGVRTWYADSVKGRFTISRDNPQNTVYLQMNNLKSGDTAVYYCAASVGNYGLPWAHFEYDFWGQGTQVTVSSKHHHHHH
Turning to B3, the results for the “ND 50 MN assay, live virus” value in test [1], in test [3] and in test [2] were 0.1 nM, 0.2 nM and 0.1 nM, respectively.

B4: C5 trimer (VHH)
chain: QVQLVESGGGSVQAGGSLTLSCVASGVTLGRHAIGWFRQAPGKERERVSCIRTFDGITSYVESTKGRFTISSNNAMNTVYLQMNSLKPEDTAVYFCALGVTAACSDNPYFWGQGTQVTVSSGSGSGSQVQLVESGGGSVQAGGSLTLSCVASGVTLGRHAIGWFRQAPGKERERVSCIRTFDGITSYVESTKGRFTISSNNAMNTVYLQMNSLKPEDTAVYFCALGVTAACSDNPYFWGQGTQVTVSSGSGSGSQVQLVESGGGSVQAGGSLTLSCVASGVTLGRHAIGWFRQAPGKERERVSCIRTFDGITSYVESTKGRFTISSNNAMNTVYLQMNSLKPEDTAVYFCALGVTAACSDNPYFWGQGTQVTVSS
notes: also called trimeric C5 nanobody; C5-6GS-C5-6GS-C5
For B4, the “ND 50 MN assay, live virus” value in test [1] turned out to be 0.25 nM; in test [2], 0.02 nM.
